Data on seven molecules can be found in patent US20220281976A1 (Alector, published 2022).

The target in assay [1] is T1, human CD33 Fc fusion protein (human, UniProt P20138 18-259).
T1 construct: also called hCD33-Fc; human CD33/Fc chimera (R&D Systems)
Briefly: ForteBio BLI or MSD-SET. On the technique in general: BLI is a label-free optical method that tracks binding on a fibre tip over time.

Assay [2] concerns the target T2, human monomeric His tagged CD33 protein (human, UniProt P20138 18-259).
T2 construct: also called hCD33-His
Put plainly: ForteBio BLI or MSD-SET.

For assay [3], the target named is T3, human CD33 (human, UniProt P20138 18-364).
T3 construct: CD33 on human primary dendritic cells, macrophages, monocytes and T cells and on CHO cells expressing recombinant human CD33; also called Siglec-3; hCD33
Briefly: flow cytometry, human primary monocytes.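 Further: binding of anti-CD33 antibodies at 10 ug/ml to human primary monocytes, 1 h on ice, detected by PE-labelled secondary antibody, flow cytometry readout as mean fluorescence intensity.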 On the set-up: reference not given here. On the technique in general: Flow cytometry measures light scatter and fluorescence of single cells or particles in a stream.

In assay [4] the target is T3, human CD33. Briefly: cell-based or functional assay.
The target in assay [5] is T3, human CD33. Briefly: flow cytometry, human primary dendritic cells.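 Further: binding of anti-CD33 antibodies (10 ug/ml, 1 h on ice) to human primary dendritic cells, detected with a PE-labelled secondary antibody, reported as flow cytometry MFI.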
Procedure: (§1) Initial characterization of CD33 antibodies involved determining their ability to bind CD33 expressed on a CHO cell line, on human primary monocytes, human primary macrophages, human primary dendritic cells, and on human primary T cells. Cells were harvested, plated at 10⁶/ml in a 96 well plate, and incubated in 100 ul PBS containing 2% FBS, 2 mM EDTA and 10 ug/ml Mab and Fc blocking reagent for 1 hour in ice. Cells were washed twice and incubated in 100 ul PBS containing 2% FBS, 2 mM EDTA and 5 ug/ml PE-conjugated secondary antibody for 30 minutes on ice. Cells were washed twice in cold PBS and analyze by flow cytometry on a BD FACS Canto. Data analysis and calculation of MFI values was performed with FlowJo (TreeStar) software version 10.0.7.
The target of assay [6] is T4, mouse CD33 Fc fusion protein (mouse, UniProt Q63994 18-240, limits assumed).
T4 construct: also called mCD33-Fc
T4 sequence: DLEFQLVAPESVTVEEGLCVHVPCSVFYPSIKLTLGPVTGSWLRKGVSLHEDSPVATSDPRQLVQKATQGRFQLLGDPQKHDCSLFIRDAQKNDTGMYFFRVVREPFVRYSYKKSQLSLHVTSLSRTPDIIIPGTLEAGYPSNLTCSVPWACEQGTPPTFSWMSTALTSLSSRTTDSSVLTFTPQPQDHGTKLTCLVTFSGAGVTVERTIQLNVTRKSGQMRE
Briefly: ForteBio BLI or MSD-SET, IgG, avid.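 Further: Anti-CD33 IgG affinity by BLI, IgG captured on AHQ sensors with antigen in solution and a one-to-one kinetic fit, or by MSD solution equilibrium titration with quadratic fit.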

In assay [7] the target is T3, human CD33. Put plainly: flow cytometry, human primary macrophages.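 Further: binding of CD33 antibodies at 10 µg/ml to human primary macrophages, 1 h on ice, detected with PE-labelled secondary antibody by flow cytometry, reported as MFI.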
Procedure: as §1
In assay [8] the target is T3, human CD33. Put plainly: flow cytometry, human primary T cells.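 Further: binding of anti-CD33 antibodies at 10 ug/ml to human primary T cells, 1 h on ice, detected with PE-labelled secondary antibody, read as flow cytometry MFI.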
Procedure: as §1
For assay [9], the target named is T1, human CD33 Fc fusion protein. Put plainly: RBC adhesion to plate-bound CD33-Fc; antibody 1.0 ug/ml.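 Further: red blood cells adhering to plate-coated CD33-Fc after 1 h antibody pretreatment, then 1 h at room temperature, bound cells read as peroxidase activity after lysis.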
Assay [10] shares this target. Put plainly: RBC adhesion to plate-bound CD33-Fc; antibody 0.5 ug/ml.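 Further: Plate-coated CD33-Fc preincubated 1 h with antibody, then red blood cells added for 1 h at room temperature, adherent cells lysed and quantified via peroxidase activity.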
Assay [11] deals with T2, human monomeric His tagged CD33 protein. Briefly: ForteBio BLI or MSD-SET, IgG, monomeric antigen.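 Further: BLI: antibodies captured on AHQ sensors, 100 nM antigen association 5 min, dissociation 5 min, 1:1 fit. MSD-SET: antigen fixed at 50 pM, antibody titrated, quadratic fit.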
Assay [12] has as its target T4, mouse CD33 Fc fusion protein. Put plainly: ForteBio BLI or MSD-SET.
Assay [13] has as its target T1, human CD33 Fc fusion protein. Briefly: ForteBio BLI or MSD-SET, IgG, avid.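 Further: Anti-CD33 IgG affinity by BLI, IgG captured on AHQ sensors with antigen in solution and a one-to-one kinetic fit, or by MSD solution equilibrium titration with quadratic fit.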

T2 sequence (P20138 18-259 limits assumed): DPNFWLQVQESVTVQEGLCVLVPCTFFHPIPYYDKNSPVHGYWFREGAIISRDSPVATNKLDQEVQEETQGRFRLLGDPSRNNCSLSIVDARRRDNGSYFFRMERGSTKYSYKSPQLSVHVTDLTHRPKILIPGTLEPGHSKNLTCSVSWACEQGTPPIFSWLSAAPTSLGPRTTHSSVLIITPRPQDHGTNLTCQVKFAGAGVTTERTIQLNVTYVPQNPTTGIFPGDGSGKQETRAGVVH
T1 sequence (P20138 18-259 limits assumed): as above
T3 sequence (P20138 18-364): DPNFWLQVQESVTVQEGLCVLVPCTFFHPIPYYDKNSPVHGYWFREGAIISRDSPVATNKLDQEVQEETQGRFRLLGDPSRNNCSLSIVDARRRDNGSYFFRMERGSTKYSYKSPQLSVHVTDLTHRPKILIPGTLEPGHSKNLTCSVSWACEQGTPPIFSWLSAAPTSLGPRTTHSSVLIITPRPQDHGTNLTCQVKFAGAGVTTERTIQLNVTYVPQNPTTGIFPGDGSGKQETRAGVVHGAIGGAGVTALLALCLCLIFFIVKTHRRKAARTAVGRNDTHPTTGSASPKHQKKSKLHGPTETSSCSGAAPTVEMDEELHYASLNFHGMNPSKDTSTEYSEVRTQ

B1: C-50 (antibody, V domains shown)
VH: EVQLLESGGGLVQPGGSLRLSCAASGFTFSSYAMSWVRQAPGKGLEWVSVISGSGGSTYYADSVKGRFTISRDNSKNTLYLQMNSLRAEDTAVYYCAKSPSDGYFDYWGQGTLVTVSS
VL: DIQMTQSPSSVSASVGDRVTITCRASQGISSWLAWYQQKPGKAPKLLIYAASSLQSGVPSRFSGSGSGTDFTLTISSLQPEDFATYYCQQAFDFPITFGGGTKVEIK
notes: human IgG1
What is called Kd is the free concentration of one partner at which half of the binding sites on the other are occupied at equilibrium, for simple one-to-one binding. B1: the binding result in assay [1] and in assay [2] was “no binding (tested: 100 nM)” in each case. Moreover, the “Monocyte MFI” value in assay [3] is 54. Besides, the “Percent CD33 Surface Expression, DC % CD33” value in [4] came to 87%. For the same molecule, in [4], the “Percent CD33 Surface Expression, Monocyte % CD33” value amounted to 85.3%. The “DC MFI” value in [5] came to 307. In assay [6], this molecule yielded a Kd of 0.445 nM. Besides, the “Macrophage MFI” value in assay [7] worked out at 496. Also, the “T cell MFI” value in assay [8] turned out to be 112. The “Percent RBC Binding to CD33” value turned out to be 95.3% in assay [9] and 118% in assay [10].

B2: C-64 (antibody, V domains shown)
VH: QVQLVQSGAEVKKPGSSVKVSCKASGGTFSSLAISWVRQAPGQGLEWMGGIIPIFGTANYAQKFQGRVTITADESTSTAYMELSSLRSEDTAVYYCARGTFYSDELFDYWGQGTLVTVSS
VL: DIQMTQSPSSVSASVGDRVTITCRASQGISSWLAWYQQKPGKAPKLLIYAASSLQSGVPSRFSGSGSGTDFTLTISSLQPEDFATYYCQQENSYPLTFGGGTKVEIK
notes: human IgG1
B2: the “Monocyte MFI” value in assay [3] amounted to 188. Further, in assay [4], the “Percent CD33 Surface Expression, DC % CD33” value worked out at 31%; the “Percent CD33 Surface Expression, Macrophage % CD33” value was 40.5%; the “Percent CD33 Surface Expression, Monocyte % CD33” value was found to be 29.5%. In addition, in [5], the “DC MFI” value turned out to be 1300. Further, the Kd in [6] turned out to be 25.8 nM. In addition, the affinity in [11], expressed as Kd, was 7.1 nM. For the same molecule, the “Macrophage MFI” value in assay [7] was determined as 1040. In assay [8], the “T cell MFI” value came out at 188. For the same molecule, in assay [9], the “Percent RBC Binding to CD33” value was determined as 90.4%. Also, the “Percent RBC Binding to CD33” value in assay [10] was found to be 93.5%.

B3: C-33 (antibody, V domains shown)
VH: EVQLVESGGGLVQPGGSLRLSCAASGFTFSSYWMSWVRQAPGKGLEWVANIKSDGSEKYYVDSVKGRFTISRDNAKNSLYLQMNSLRAEDTAVYYCAREGRPRLGYAAFDIWGQGTMVTVSS
VL: DIQMTQSPSSLSASVGDRVTITCRASQSISSYLNWYQQKPGKAPKLLIYAASSLQSGVPSRFSGSGSGTDFTLTISSLQPEDFATYYCQQQYDLPITFGGGTKVEIK
notes: human IgG1
As to B3, the binding result in assay [12] is given as “no binding (tested: 100 nM)”. The “Monocyte MFI” value in [3] was found to be 133. Further, the “Percent CD33 Surface Expression, DC % CD33” value in [4] was determined as 18.4%. The “Percent CD33 Surface Expression, Macrophage % CD33” value in [4] was 43.1%. Further, the “Percent CD33 Surface Expression, Monocyte % CD33” value in assay [4] stood at 51.4%. Besides, the “DC MFI” value in assay [5] was 1590. Also, the Kd in [13] amounted to 0.954 nM; in assay [11] it was 3.91 nM. Further, the “Macrophage MFI” value in assay [7] turned out to be 753. Also, the “T cell MFI” value in assay [8] turned out to be 228. Also, the “Percent RBC Binding to CD33” value in [9] amounted to 6.32%; in assay [10], 9.36%.

B4: C-51 (antibody, V domains shown)
VH: QLQLQESGPGLVKPSETLSLTCTVSGGSISSSSYYWGWIRQPPGKGLEWIGSIYYSGSTYYNPSLKSRVTISVDTSKNQFSLKLSSVTAADTAVYYCARGAPHDYGGGVGWFDPWGQGTTVTVSS
VL: DIQMTQSPSSVSASVGDRVTITCRASQGISSWLAWYQQKPGKAPKLLIYAASNLQSGVPSRFSGSGSGTDFTLTISSLQPEDFATYYCQQSRVFPWTFGGGTKVEIK
notes: human IgG1
For B4, the binding result in assay [1] and in assay [2] was “no binding (tested: 100 nM)” in each case. For the same molecule, in assay [6], the Kd turned out to be 2.72 nM. Besides, the “Percent RBC Binding to CD33” value in [9] is 129%; in assay [10], 96.6%.

B5: C-34 (antibody, V domains shown)
VH: EVQLVESGGGLVQPGGSLRLSCAASGFTFSSYWMSWVRQAPGKGLEWVANINQDGSEKYYVDSVKGRFTISRDNAKNSLYLQMNSLRAEDTAVYYCARDHGATGPDFDLWGRGTLVTVSS
VL: DIQMTQSPSSLSASVGDRVTITCRASQSISSYLNWYQQKPGKAPKLLIYGASSLQSGVPSRFSGSGSGTDFTLTISSLQPEDFATYYCQQQYLTPLTFGGGTKVEIK
notes: human IgG1
For the molecule B5, the binding result in assay [12] was “no binding (tested: 100 nM)”. In addition, the “Monocyte MFI” value in assay [3] came to 157. Also, the “Percent CD33 Surface Expression, DC % CD33” value in [4] is 20.1%. In addition, in assay [4], the “Percent CD33 Surface Expression, Macrophage % CD33” value came to 38%. In assay [4], the “Percent CD33 Surface Expression, Monocyte % CD33” value amounted to 42.5%. Moreover, the “DC MFI” value in assay [5] was determined as 1440. Moreover, the Kd amounted to 1.21 nM in assay [13] and 4.44 nM in assay [11]. Besides, the “Macrophage MFI” value in [7] stood at 862. Besides, the “T cell MFI” value in [8] was 216. For the same molecule, the “Percent RBC Binding to CD33” value in assay [9] was 9.86%; in assay [10], 14.4%.

B6: C-32 (antibody, V domains shown)
VH: EVQLVESGGGLVQPGGSLRLSCAASGFTFSSYWMSWVRQAPGKGLEWVANIKSDGSEKYYVDSVKGRFTISRDNAKNSLYLQMNSLRAEDTAVYYCARGPSEAAAAKDFDLWGRGTLVTVSS
VL: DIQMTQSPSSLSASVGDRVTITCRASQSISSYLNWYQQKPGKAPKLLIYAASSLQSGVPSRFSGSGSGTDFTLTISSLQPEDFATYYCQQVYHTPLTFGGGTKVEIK
notes: human IgG1
Take B6: the binding result in assay [12] is reported as “no binding (tested: 100 nM)”. Moreover, the “Monocyte MFI” value in assay [3] was found to be 133. Besides, in [4], the “Percent CD33 Surface Expression, DC % CD33” value was 17.3%. In addition, in assay [4], the “Percent CD33 Surface Expression, Macrophage % CD33” value came out at 43.2%. Further, the “Percent CD33 Surface Expression, Monocyte % CD33” value in assay [4] worked out at 33.5%. For the same molecule, the “DC MFI” value in assay [5] was found to be 1460. Moreover, the Kd in assay [13] came out at 1.63 nM; in assay [11], 7.82 nM. Further, the “Macrophage MFI” value in assay [7] is 855. For the same molecule, the “T cell MFI” value in [8] turned out to be 248. The results for the “Percent RBC Binding to CD33” value in assay [9] and in assay [10] were 7.86% and 12.5%, respectively.

B7: C-47 (antibody, V domains shown)
VH: QVQLVESGGGVVQPGRSLRLSCAASGFTFSSYGMHWVRQAPGKGLEWVAVISYDGSNKYYADSVKGRFTISRDNSKNTLYLQMNSLRAEDTAVYYCARGPYYSYTDTAWFDPWGQGTLVTVSS
VL: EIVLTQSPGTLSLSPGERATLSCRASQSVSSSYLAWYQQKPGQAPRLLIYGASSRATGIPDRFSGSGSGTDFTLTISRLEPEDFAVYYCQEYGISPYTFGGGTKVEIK
notes: human IgG1
For B7, the binding result in assay [1] and in [2] was “no binding (tested: 100 nM)” throughout. The molecule also gave a Kd in [6] of 1.09 nM. The results for the “Percent RBC Binding to CD33” value in assay [9] and in assay [10] were 142% and 112%, respectively.
